Assay results: IntAct's records for PubMed 31515488

B1: DCC-interacting protein 13-alpha (Homo sapiens), Q9UKG1 (parent)
chain: MPGIDKLPIEETLEDSPQTRSLLGVFEEDATAISNYMNQLYQAMHRIYDAQNELSAATHLTSKLLKEYEKQRFPLGGDDEVMSSTLQQFSKVIDELSSCHAVLSTQLADAMMFPITQFKERDLKEILTLKEVFQIASNDHDAAINRYSRLSKKRENDKVKYEVTEDVYTSRKKQHQTMMHYFCALNTLQYKKKIALLEPLLGYMQAQISFFKMGSENLNEQLEEFLANIGTSVQNVRREMDSDIETMQQTIEDLEVASDPLYVPDPDPTKFPVNRNLTRKAGYLNARNKTGLVSSTWDRQFYFTQGGNLMSQARGDVAGGLAMDIDNCSVMAVDCEDRRYCFQITSFDGKKSSILQAESKKDHEEWICTINNISKQIYLSENPEETAARVNQSALEAVTPSPSFQQRHESLRPAAGQSRPPTARTSSSGSLGSESTNLAALSLDSLVAPDTPIQFDIISPVCEDQPGQAKAFGQGGRRTNPFGESGGSTKSETEDSILHQLFIVRFLGSMEVKSDDHPDVVYETMRQILAARAIHNIFRMTESHLLVTCDCLKLIDPQTQVTRLTFPLPCVVLYATHQENKRLFGFVLRTSSGRSESNLSSVCYIFESNNEGEKICDSVGLAKQIALHAELDRRASEKQKEIERVKEKQQKELNKQKQIEKDLEEQSRLIAASSRPNQASSEGQFVVLSSSQSEESDLGEGGKKRESEA
B2: Pyruvate dehydrogenase protein X component, mitochondrial (Homo sapiens), O00330 (parent)
chain: MAASWRLGCDPRLLRYLVGFPGRRSVGLVKGALGWSVSRGANWRWFHSTQWLRGDPIKILMPSLSPTMEEGNIVKWLKKEGEAVSAGDALCEIETDKAVVTLDASDDGILAKIVVEEGSKNIRLGSLIGLIVEEGEDWKHVEIPKDVGPPPPVSKPSEPRPSPEPQISIPVKKEHIPGTLRFRLSPAARNILEKHSLDASQGTATGPRGIFTKEDALKLVQLKQTGKITESRPTPAPTATPTAPSPLQATAGPSYPRPVIPPVSTPGQPNAVGTFTEIPASNIRRVIAKRLTESKSTVPHAYATADCDLGAVLKVRQDLVKDDIKVSVNDFIIKAAAVTLKQMPDVNVSWDGEGPKQLPFIDISVAVATDKGLLTPIIKDAAAKGIQEIADSVKALSKKARDGKLLPEEYQGGSFSISNLGMFGIDEFTAVINPPQACILAVGRFRPVLKLTEDEEGNAKLQQRQLITVTMSSDSRVVDDELATRFLKSFKANLENPIRLA
B3: von Hippel-Lindau disease tumor suppressor (Homo sapiens), P40337-2 (parent)
chain: MPRRAENWDEAEVGAEEAGVEEYGPEEDGGEESGAEESGPEESGPEELGAEEEMEAGRPRPVLRSVNSREPSQVIFCNRSPRVVLPVWLNFDGEPQPYPTLPPGTGRRIHSYRVYTLKERCLQVVRSLVKPENYRRLDIVRSLYEDLEDHPNVQKDLERLTQERIAHQRMGD
B4: Vesicle transport protein SFT2B (Homo sapiens), O95562 (parent)
chain: MDKLKKVLSGQDTEDRSGLSEVVEASSLSWSTRIKGFIACFAIGILCSLLGTVLLWVPRKGLHLFAVFYTFGNIASIGSTIFLMGPVKQLKRMFEPTRLIATIMVLLCFALTLCSAFWWHNKGLALIFCILQSLALTWYSLSFIPFARDAVKKCFAVCLA
partner: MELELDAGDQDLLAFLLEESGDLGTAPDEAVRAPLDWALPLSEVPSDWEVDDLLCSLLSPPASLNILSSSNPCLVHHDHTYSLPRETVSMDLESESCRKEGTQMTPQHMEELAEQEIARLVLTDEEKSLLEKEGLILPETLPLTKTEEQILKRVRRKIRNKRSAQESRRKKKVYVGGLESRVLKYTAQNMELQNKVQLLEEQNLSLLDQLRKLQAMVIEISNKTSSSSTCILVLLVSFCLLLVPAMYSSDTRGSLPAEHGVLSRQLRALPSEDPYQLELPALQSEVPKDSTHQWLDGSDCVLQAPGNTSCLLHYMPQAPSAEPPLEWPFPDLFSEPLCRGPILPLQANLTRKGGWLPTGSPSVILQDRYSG
B5: NADPH oxidase activator 1 (Homo sapiens), Q86UR1 (parent)
chain: MASLGDLVRAWHLGAQAVDRGDWARALHLFSGVPAPPARLCFNAGCVHLLAGDPEAALRAFDQAVTKDTCMAVGFFQRGVANFQLARFQEALSDFWLALEQLRGHAAIDYTQLGLRFKLQAWEVLHNVASAQCQLGLWTEAASSLREAMSKWPEGSLNGLDSALDQVQRRGSLPPRQVPRGEVFRPHRWHLKHLEPVDFLGKAKVVASAIPDDQGWGVRPQQPQGPGANHDARSLIMDSPRAGTHQGPLDAETEVGADRCTSTAYQEQRPQVEQVGKQAPLSPGLPAMGGPGPGPCEDPAGAGGAGAGGSEPLVTVTVQCAFTVALRARRGADLSSLRALLGQALPHQAQLGQLSYLAPGEDGHWVPIPEEESLQRAWQDAAACPRGLQLQCRGAGGRPVLYQVVAQHSYSAQGPEDLGFRQGDTVDVLCEVDQAWLEGHCDGRIGIFPKCFVVPAGPRMSGAPGRLPRSQQGDQP
B6: Protein FAM13C (Homo sapiens), Q8NE31 (parent)
chain: MFSCFCFSLQDNSFSSTTVTECDEDPVSLHEDQTDCSSLRDENNKENYPDAGALVEEHAPPSWEPQQQNVEATVLVDSVLRPSMGNFKSRKPKSIFKAESGRSHGESQETEHVVSSQSECQVRAGTPAHESPQNNAFKCQETVRLQPRIDQRTAISPKDAFETRQDLNEEEAAQVHGVKDPAPASTQSVLADGTDSADPSPVHKDGQNEADSAPEDLHSVGTSRLLYHITDGDNPLLSPRCSIFSQSQRFNLDPESAPSPPSTQQFMMPRSSSRCSCGDGKEPQTITQLTKHIQSLKRKIRKFEEKFEQEKKYRPSHGDKTSNPEVLKWMNDLAKGRKQLKELKLKLSEEQGSAPKGPPRNLLCEQPTVPRENGKPEAAGPEPSSSGEETPDAALTCLKERREQLPPQEDSKVTKQDKNLIKPLYDRYRIIKQILSTPSLIPTIQEEEDSDEDRPQGSQQPSLADPASHLPVGDHLTYSNETEPVRALLPDEKKEVKPPALSMSNLHEATMPVLLDHLRETRADKKRLRKALREFEEQFFKQTGRSPQKEDRIPMADEYYEYKHIKAKLRLLEVLISKQDVAKTI
partner: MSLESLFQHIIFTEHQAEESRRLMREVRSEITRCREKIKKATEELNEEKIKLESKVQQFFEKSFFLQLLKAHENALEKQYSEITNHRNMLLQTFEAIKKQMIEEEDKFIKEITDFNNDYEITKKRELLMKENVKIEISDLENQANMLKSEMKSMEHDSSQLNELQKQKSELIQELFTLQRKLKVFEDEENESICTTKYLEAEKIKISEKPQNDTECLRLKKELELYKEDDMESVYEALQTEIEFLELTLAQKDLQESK
B7: Breast cancer metastasis-suppressor 1 (Homo sapiens), Q9HCU9 (parent)
chain: MPVQPPSKDTEEMEAEGDSAAEMNGEEEESEEERSGSQTESEEESSEMDDEDYERRRSECVSEMLDLEKQFSELKEKLFRERLSQLRLRLEEVGAERAPEYTEPLGGLQRSLKIRIQVAGIYKGFCLDVIRNKYECELQGAKQHLESEKLLLYDTLQGELQERIQRLEEDRQSLDLSSEWWDDKLHARGSSRSWDSLPPSKRKKAPLVSGPYIVYMLQEIDILEDWTAIKKARAAVSPQKRKSDGP

Variants of: B1
Conditions: with traf2_human TRAF2, Q12933
Chain of traf2_human TRAF2, Q12933 (Q12933 whole entry): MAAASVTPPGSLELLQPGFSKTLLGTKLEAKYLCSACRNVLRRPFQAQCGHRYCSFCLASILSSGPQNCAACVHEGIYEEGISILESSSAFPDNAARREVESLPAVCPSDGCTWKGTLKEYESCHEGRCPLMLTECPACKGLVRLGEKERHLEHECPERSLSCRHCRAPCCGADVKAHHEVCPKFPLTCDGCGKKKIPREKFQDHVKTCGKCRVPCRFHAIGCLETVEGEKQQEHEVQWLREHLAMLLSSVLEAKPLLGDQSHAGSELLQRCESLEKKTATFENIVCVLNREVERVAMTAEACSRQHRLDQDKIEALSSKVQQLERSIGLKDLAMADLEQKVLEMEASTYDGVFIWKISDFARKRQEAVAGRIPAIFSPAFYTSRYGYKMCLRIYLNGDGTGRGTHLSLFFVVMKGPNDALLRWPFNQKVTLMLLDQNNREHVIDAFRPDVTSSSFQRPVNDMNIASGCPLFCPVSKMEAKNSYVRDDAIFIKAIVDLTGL

| effect of a mutation on the interaction | Variant |
| --- | --- |
| with no effect | E67G |
| with no effect | E643Q |

Variants of: B1
Conditions: with maga9_human MAGEA9, P43362
Chain of maga9_human MAGEA9, P43362 (P43362 whole entry): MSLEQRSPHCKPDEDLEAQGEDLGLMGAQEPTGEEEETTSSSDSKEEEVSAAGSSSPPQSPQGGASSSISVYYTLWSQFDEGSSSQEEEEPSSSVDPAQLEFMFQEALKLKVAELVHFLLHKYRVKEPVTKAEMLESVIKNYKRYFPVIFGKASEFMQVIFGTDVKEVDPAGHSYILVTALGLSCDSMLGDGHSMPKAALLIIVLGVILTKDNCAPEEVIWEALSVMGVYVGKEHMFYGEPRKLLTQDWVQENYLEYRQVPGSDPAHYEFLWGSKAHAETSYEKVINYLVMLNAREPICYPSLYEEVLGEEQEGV

| effect of a mutation on the interaction | Variant |
| --- | --- |
| with no effect | E67G |
| with no effect | E643Q |

Variants of: B2
Conditions: with atrap_human AGTRAP

| effect of a mutation on the interaction | Variant |
| --- | --- |
| with no effect | N270S |

Variants of: B3
Conditions: with mdfi_human MDFI

| effect of a mutation on the interaction | Variant |
| --- | --- |
| disrupting interaction strength | F76S |
| disrupting interaction strength | H167D |
| with no effect | S65W |

Variants of: B4
Conditions: with creb3_human CREB3, O43889

| effect of a mutation on the interaction | Variant |
| --- | --- |
| with no effect | T137M |

Variants of: B5
Conditions: with rim3a_human RIMBP3, Q9UFD9
Chain of rim3a_human RIMBP3, Q9UFD9 (Q9UFD9 whole entry): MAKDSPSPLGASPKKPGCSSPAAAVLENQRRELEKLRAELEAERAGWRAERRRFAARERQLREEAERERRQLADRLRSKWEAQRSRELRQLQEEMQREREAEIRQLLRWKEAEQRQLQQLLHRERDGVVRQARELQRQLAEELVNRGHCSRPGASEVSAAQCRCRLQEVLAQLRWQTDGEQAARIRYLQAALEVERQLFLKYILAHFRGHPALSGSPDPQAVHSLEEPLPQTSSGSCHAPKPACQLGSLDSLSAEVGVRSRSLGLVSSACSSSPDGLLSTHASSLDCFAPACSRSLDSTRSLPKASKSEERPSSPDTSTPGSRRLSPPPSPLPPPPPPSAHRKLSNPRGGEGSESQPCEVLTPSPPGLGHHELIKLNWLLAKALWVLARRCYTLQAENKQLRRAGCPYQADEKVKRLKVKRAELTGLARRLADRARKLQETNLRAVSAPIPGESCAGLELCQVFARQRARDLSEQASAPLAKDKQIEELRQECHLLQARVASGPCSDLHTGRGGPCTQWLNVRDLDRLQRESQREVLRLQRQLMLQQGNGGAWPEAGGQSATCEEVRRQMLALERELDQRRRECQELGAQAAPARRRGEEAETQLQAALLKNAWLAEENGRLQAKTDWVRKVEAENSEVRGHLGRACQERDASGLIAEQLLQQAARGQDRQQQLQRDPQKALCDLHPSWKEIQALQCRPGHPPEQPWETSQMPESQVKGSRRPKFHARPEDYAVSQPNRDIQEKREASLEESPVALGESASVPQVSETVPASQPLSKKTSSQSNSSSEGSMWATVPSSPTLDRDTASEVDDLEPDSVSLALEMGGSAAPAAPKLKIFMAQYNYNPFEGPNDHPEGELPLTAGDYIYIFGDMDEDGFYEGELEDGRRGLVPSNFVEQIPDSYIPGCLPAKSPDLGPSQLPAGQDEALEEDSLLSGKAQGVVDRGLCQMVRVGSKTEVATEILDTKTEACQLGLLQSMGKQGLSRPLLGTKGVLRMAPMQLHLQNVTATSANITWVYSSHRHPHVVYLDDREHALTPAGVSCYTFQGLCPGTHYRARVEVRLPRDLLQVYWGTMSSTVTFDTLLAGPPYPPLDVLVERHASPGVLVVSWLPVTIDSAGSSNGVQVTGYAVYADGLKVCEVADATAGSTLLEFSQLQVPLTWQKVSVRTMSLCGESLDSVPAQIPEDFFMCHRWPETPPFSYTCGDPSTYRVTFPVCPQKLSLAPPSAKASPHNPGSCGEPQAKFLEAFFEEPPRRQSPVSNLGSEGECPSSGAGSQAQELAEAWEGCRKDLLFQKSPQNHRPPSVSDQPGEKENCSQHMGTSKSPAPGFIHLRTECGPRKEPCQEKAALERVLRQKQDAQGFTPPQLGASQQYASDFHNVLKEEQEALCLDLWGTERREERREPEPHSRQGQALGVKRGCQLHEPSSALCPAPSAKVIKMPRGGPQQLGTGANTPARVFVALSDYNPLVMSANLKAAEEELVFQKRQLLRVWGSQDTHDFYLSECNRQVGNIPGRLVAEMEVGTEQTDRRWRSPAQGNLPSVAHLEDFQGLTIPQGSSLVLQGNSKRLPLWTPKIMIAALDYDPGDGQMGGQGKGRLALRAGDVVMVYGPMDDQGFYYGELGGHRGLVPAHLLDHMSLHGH

| effect of a mutation on the interaction | Variant |
| --- | --- |
| with no effect | D6E |

Variants of: B6
Conditions: with cc172_human CCDC172, P0C7W6

| effect of a mutation on the interaction | Variant |
| --- | --- |
| with no effect | P147S |

Variants of: B7
Conditions: with cep70_human CEP70, Q8NHQ1
Chain of cep70_human CEP70, Q8NHQ1 (Q8NHQ1 whole entry): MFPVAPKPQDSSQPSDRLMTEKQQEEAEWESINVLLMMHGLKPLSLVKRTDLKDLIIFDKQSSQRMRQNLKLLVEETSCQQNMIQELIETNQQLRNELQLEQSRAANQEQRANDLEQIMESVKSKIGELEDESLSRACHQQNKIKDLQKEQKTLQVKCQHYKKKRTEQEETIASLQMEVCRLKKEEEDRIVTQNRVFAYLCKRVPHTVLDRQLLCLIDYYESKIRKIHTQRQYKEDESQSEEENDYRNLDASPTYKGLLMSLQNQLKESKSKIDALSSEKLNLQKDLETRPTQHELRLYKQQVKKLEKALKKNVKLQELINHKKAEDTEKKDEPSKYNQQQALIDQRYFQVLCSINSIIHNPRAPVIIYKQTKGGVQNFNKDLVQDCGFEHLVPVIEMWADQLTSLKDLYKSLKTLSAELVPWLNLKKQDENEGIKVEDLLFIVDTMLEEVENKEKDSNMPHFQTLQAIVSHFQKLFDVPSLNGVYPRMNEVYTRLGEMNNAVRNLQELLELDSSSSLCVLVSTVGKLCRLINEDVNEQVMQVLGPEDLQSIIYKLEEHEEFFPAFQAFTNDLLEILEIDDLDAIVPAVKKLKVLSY

| effect of a mutation on the interaction | Variant |
| --- | --- |
| with no effect | S7G |
